Results published in the nanobody polyreactivity screen of Harvey et al. (2022).

Assay: yeast display, Sf9 membrane polyspecificity reagent, FACS + sequencing; frameworks hold sequencing errors
Method in brief: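 A synthetic nanobody library was expressed on Saccharomyces cerevisiae BJ5465 by galactose induction for 36–48 hours. The library was stained for 1 hour at 4 °C with 10% biotinylated, detergent-solubilized Sf9 membrane reagent and enriched with streptavidin microbeads before FACS. Low and high (top ~1%) gates were set on anti-HA fluorescence for expression and streptavidin fluorescence for reagent binding, and each polyreactivity label reflects the gate of origin.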

| Sequence | polyreactivity (PSR sort gate) |
| --- | --- |
| QVQLVESGGRLVQAGGSLRLSSAASGRTFRTYALGWYRQAPGTEREFVAAISRRSGITYYADSVKGRFTISRDNAKNTVYLQMNSLKPEDTAVYYCAATGYTGYSRYYYWGQGTQVTVSS | high polyreactivity |
| QVQLVESGGRLVQAGGSLRLTCAASGNIFANNAMGWYRQAPGTERELVAAISQSGGNTYYEDSVKGRFTISRDNAKNTVYLQMNSLKPEDTAVYYCNAKTYGYNYDSWGQGTQVTVSS | low polyreactivity |
| QVQLVESGGRLVQAGGSLRLTCASSGRIFRYYAMGWYRQAPGKERQLVAAISSSGGSTYYADSVKGRFTISRDNAKNTVYLQMNSLKPEDTAVYYCAARYHIDTLFYGSRYDYWGQGTQVTVSS | high polyreactivity |
| QVQLVESGGRLVQAGGTLRLSCAASGFIFTPYAMGWYRQAPGKERELVAAITWRGARTYYADSVKGRFTISRDNANNTVYLQMNSLKPEDTAVYYCATTFTGYNKEFGYWGQGTQVTVSS | high polyreactivity |
| QVQLVESGGRLVQAGGTLRLSCAASGRNVGLYAMGWSRQAPGKERELVAAISSTGRTTYADSVKGRFTISRDNAKNNVYLQMNSLIPEVTAVYYCKADARSVCWYYYACLFDYWGQGTQGTVSS | low polyreactivity |
| QVQLVESGGRLVQAGGTLRLSCAASGRTLSNYALGWSRQAPGKERELVAAISSSGSTNYADSVKGRFTISRDNAKNTVYLQMNSLKPEDSAVYYCAAESWFLRWYRYDYWGQGTQVTVSS | low polyreactivity |
| QVQLVESGGRLVQEGGSLRLRCAASGSIFSGYAMGWSRQAPGKERELVAVITRGGNTNYADSVKGRFTISRDNAKNTVSLQMNSLTPEDTAVYYCAVDLRKSYRHKFDFNYWGQGTQVTVSS | low polyreactivity |
| QVQLVESGGRLVQEGRSLRLSCAASGSIFSRYAMGWYRQAPRKERELVAAITWSGGSTYYADSVKGRFTISRDNAKNNVYLQMNSLKPDDTAVYYCAAVGYAPYNHRYDSWGQGTQVTVSS | low polyreactivity |
| QVQLVESGGRLVQERGSLRLSCAASGFIFGRYAMGWYIQAPGKERELVAAITQSGGSTYYADSVKGRFTISRDNAKNTVYVQMNCLNPEDTAVYYCIAPIAYWRVHYKYGYWGQGTQVTVSS | low polyreactivity |
| QVQLVESGGSLVQAGGSLRLSCAASGRTFGYNGMGWYRQAPGKERELVAAITNDGGNTNYADSVKGRFTISRDNAKNTVYLQMNSLKPEDTAVYYCNADRTQDRNPYTYATFDYWGQGTQVTVSS | low polyreactivity |
| QVQLVESGGSLVQAGGSLRLSCAASGSTLYYNAMGWYRQAPGKERELVAAISWSGGSTYYADSVKGRFTISRDNAKNTVYLQMNSLKPEDTSVYYCAADQSTVLDVGSWGQGTQVTVSS | low polyreactivity |
| QVQLVESGGVLVQAGCSLRLSCAASGSTFYYNAMGWYRQAPRKERELVARISRSGGSTYADSVKGRFTISRDNAKNTVYLQMNSLKPEDTAVYYCYADAYGTPEFTSYAVRYDYWGQGTQVTVSS | low polyreactivity |
| QVQLVESGGVLVQAGCSLRLSCAAYGFTFASYAMGWYRQAPGKERELVAAISWGTVSTYYADSVKGRFTISRDNAMITVYLQMNSLRREDTAVYFCDAQRYTRLRRHGYWGLGTQVTVSS | high polyreactivity |
| QVQLVESGGVLVQAGGSLPLSCAASGFTFSRYAMGWYRQAPGKEREFVAGISRSGGSTYYADSVKGRFTNTRDNAMNTVSLQMNSLKPEDTAVYYWAKVYPATEAGDYWGQGTQVTVSS | high polyreactivity |
| QVQLVESGGVLVQAGGSLRLSCAASGFIFSSNAMGWCREAPGKERELVAAITGGGGRTRYADSVKGRFTISRDNAKNTVYLQMNSLKPEDTAVYYCAAEVYSIWWYDYWGQGTQVTVSS | high polyreactivity |
| QVQLVESGGVLVQAGGSLRLSCAASGFIFVRYAMGWYRQAPGKERELVAAITSSDSNTNYADSVKGRFTISRDNAKNTVYLQMNSLNPEDTAVYYCNARIYTRRYVPHYGFNYWGQGTQVTVSS | low polyreactivity |

| Sequence | polyreactivity (PSR sort gate) |
| --- | --- |
| QVQLVESGGVLVQAGGSLRLSCAASGFTFVWYAMGWYRQAPGKERELVAAISRRGTRTYYADSVKGRFTISRDNAKNTVYLQMNSLKPEDTALYYCAASNGYQAVTYDYWGQGTQVTVSS | high polyreactivity |
| QVQLVESGGVLVQAGGSLRLSCAASGGIFNYYAMGWYRQAPGKERELVAAISASGGSTYYADSVKGRFTISRDNAKNTVYLQMNILKPEDTAVYYCAAGLPYGYGYDYWGQGTQVTVSS | low polyreactivity |
| QVQLVESGGVLVQAGGSLRLSCAASGITFPDYDMGWYIHATGKERELVAAITYRSGSTYYADSVKGRFTISRDNAKNTVFLQMNCLKREDTAVYYCAADWRTKGYDSLGQGTQVTVSS | high polyreactivity |
| QVQLVESGGVLVQAGGSLRLSCAASGRIFGDNAMGWYRHAPGKERELDADIDSGGRTNYADSVKVRFTISLDNAKNTVYLQMNSLKPEDTAVYYCGRDDIAYLVEYDYWGQGTQVTVSS | low polyreactivity |
| QVQLVESGGVLVQAGGSLRLSCAASGRIFGENAMGWYRQAPGKEREFVAVISISDASTYYADSVKGRFTISRDNAKNTVYLQMNSLKPEDTAVYYCADDLTDFLYVASDYWGQGTQVTVSS | low polyreactivity |
| QVQLVESGGVLVQAGGSLRLSCAASGRIFLRNVMGWYRQAPGKERELVAAISSSGGRTYYADSVKGRFTISRDNAKNSVYLQMNSLKPEDTAVYYCANLSSSRLPSEMEYWGQGTQVTVSS | high polyreactivity |
| QVQLVESGGVLVQAGGSLRLSCAASGRIFQTYAMGWYRQAPGKERELVAAISSRGRTYYADSVKGRFTISRDNAKITVYLQMNSLKREDTAVYYCAARDWSHRPRGYDYWGQGTQVTVSS | high polyreactivity |
| QVQLVESGGVLVQAGGSLRLSCAASGRIFSAYAMGWYRPAPGKERDLVAAITSVGSTKYADYVKGRFTISRDNAKNTVYLQMNSLKPQDTAVYYCAAEYTRSFYIYYRFGYWGQGTQVTVSS | high polyreactivity |
| QVQLVESGGVLVQAGGSLRLSCAASGRSFGVYAMGWYRQAPGKEMELVAAISEGGGSTNYADSVKGRFTISRDNAKNTVYLQMNSLKPEDTAVYYCAATYRTGVRRYYSWGQGTQVTVSS | low polyreactivity |
| QVQLVESGGVLVQAGGSLRLSCAASGRTFGVYAMGWYRQAPGKERELVATITSVDRTNYADSVKGRFTISRDNAKNTVYLQMNSLKTEDTAVYYCAAVGRWPLYYYWGQGTQVTVSS | high polyreactivity |
| QVQLVESGGVLVQAGGSLRLSCAASGRTFRRNAMGWYRQAPGKERELVAGIRSSGGSTYYADSVKGRFTISRDNAKNTVYLQINSLKQEDTAVYYCNAVGRPRYGHGFDHWGQGTQVTVSS | high polyreactivity |
| QVQLVESGGVLVQAGGSLRLSCAASGRTLRWYAKGWYRPAPGKERELVAAINWSGTSTYYADSVKGRFTISRDNAKNTVYLQMNSLKPEDTAVYYCAKRVTWNYDWGQGTQVTVSS | high polyreactivity |
| QVQLVESGGVLVQAGGSLRLSCAASGSIFANNAMGWYRQAPGKERELVATIRSGGTTNYADSVKGRFTISRDNAKNTVYLQMNSLKPEDTAVYYCAVDYVVYADGPLDYWGQGTQVTVSS | low polyreactivity |
| QVQLVESGGVLVQAGGSLRLSCAASGSIFDSNAMGWYRQAPGKERELVAAISWSGSRTYYADSVKGRFTISRDYAKNTVYLQILSLKPEDTAVYYCAALVRRYGKYDYWGQCTQVTVSS | high polyreactivity |
| QVQLVESGGVLVQAGGSLRLSCAASGSIFDTYAMGWYRQAPGKERELVAAITWSGSSTYYADSVKGRFTISRDNAKNTVYLQMNSLKQEDTAVYYCAKDYYVEVTTEYDYWGQGTQVTVSS | high polyreactivity |
| QVQLVESGGVLVQAGGSLRLSCAASGSIFERYDMGWYRQAPGKERELVAAITSAGITYYADSVKGRFTISRDNAKNNVYLQMNSLKPEDTAVYYCAAQGRRGAPYRHVNEGDYWGQGTQVTVSS | low polyreactivity |
